Series [1] has as its target T1, RHAU53-105 (UniProt Q9H2U1 53-105).
T1 sequence: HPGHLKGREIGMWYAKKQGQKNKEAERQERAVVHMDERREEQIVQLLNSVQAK
In words: EMSA; 150 nM RNA, 0-750 nM protein; qualitatively lower affinity than full length; RNA in 50 mM Tris pH 7.6, 100 mM KCl; EMSA as in ref 12/36 (150 nM RNA, 0-750 nM protein); pull-down binding buffer 50 mM Tris-acetate pH 7.8, 100 mM KCl, 10 mM NaCl, 3 mM MgCl2, 70 mM glycine, 10% glycerol, room temperature. As to conditions: protein: recombinant; label: 5' biotin; G-quadruplex. (A gel shift assay detects complexes by their altered migration in electrophoresis.)

In a further series the target is T2, RHAU (full length) (UniProt Q9H2U1 1-1008).
T2 sequence: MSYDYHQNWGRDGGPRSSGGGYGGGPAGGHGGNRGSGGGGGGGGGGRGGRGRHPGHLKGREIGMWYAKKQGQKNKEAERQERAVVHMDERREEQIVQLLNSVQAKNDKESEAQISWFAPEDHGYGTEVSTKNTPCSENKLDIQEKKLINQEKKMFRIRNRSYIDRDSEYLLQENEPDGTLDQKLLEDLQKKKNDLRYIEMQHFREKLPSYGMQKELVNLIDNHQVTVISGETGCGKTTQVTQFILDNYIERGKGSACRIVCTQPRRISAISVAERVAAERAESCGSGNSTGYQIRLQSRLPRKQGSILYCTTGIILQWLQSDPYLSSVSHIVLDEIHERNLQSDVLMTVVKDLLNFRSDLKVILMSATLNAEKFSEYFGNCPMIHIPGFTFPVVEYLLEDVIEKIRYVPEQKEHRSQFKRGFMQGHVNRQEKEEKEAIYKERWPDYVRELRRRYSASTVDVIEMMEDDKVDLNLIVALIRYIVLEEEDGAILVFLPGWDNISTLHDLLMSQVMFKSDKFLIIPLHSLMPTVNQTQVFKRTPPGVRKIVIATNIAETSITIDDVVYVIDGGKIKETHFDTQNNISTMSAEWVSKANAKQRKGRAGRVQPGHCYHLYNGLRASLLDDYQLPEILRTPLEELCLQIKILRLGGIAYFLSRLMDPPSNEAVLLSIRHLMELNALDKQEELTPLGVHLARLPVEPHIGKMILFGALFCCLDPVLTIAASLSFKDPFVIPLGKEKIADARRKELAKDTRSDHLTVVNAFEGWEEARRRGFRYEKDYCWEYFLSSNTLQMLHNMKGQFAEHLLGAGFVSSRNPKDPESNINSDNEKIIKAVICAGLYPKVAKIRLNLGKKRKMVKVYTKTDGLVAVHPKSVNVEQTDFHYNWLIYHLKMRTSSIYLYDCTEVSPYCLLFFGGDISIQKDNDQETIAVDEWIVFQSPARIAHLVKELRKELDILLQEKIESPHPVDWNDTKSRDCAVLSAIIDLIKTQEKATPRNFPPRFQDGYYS
In words: EMSA; 150 nM RNA, 0-750 nM protein; RNA in 50 mM Tris pH 7.6, 100 mM KCl; EMSA as in ref 12/36 (150 nM RNA, 0-750 nM protein); pull-down binding buffer 50 mM Tris-acetate pH 7.8, 100 mM KCl, 10 mM NaCl, 3 mM MgCl2, 70 mM glycine, 10% glycerol, room temperature. As to conditions: protein: recombinant, label: 5' biotin.

For series [2], the target named is T3, 6xHis-RHAU53-105 (UniProt Q9H2U1 53-105).
T3 sequence: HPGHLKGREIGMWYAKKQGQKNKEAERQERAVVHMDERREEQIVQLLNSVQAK
Put plainly: EMSA; 150 nM RNA; affinity similar to untagged; RNA in 50 mM Tris pH 7.6, 100 mM KCl; EMSA as in ref 12/36 (150 nM RNA, 0-750 nM protein); pull-down binding buffer 50 mM Tris-acetate pH 7.8, 100 mM KCl, 10 mM NaCl, 3 mM MgCl2, 70 mM glycine, 10% glycerol, room temperature. As to conditions: protein: recombinant; tags: 6xHis; label: 5' biotin; G-quadruplex.

Series [3] deals with T3, 6xHis-RHAU53-105. Put plainly: EMSA; RNA in 50 mM Tris pH 7.6, 100 mM KCl; EMSA as in ref 12/36 (150 nM RNA, 0-750 nM protein); pull-down binding buffer 50 mM Tris-acetate pH 7.8, 100 mM KCl, 10 mM NaCl, 3 mM MgCl2, 70 mM glycine, 10% glycerol, room temperature. As to conditions: protein: recombinant; tags: 6xHis; label: 5' biotin; no quadruplex (no NMM staining).
The target in series [4] is T1, RHAU53-105. In words: EMSA; 150 nM RNA, 0-750 nM protein; RNA in 50 mM Tris pH 7.6, 100 mM KCl; EMSA as in ref 12/36 (150 nM RNA, 0-750 nM protein); pull-down binding buffer 50 mM Tris-acetate pH 7.8, 100 mM KCl, 10 mM NaCl, 3 mM MgCl2, 70 mM glycine, 10% glycerol, room temperature. As to conditions: protein: recombinant; label: 5' biotin; no quadruplex (no NMM staining).

GUUGGGGCGGGCGUUGGGUUUGGGGGGACG (structured_RNA) [PITX1 Q2]: the binding result with RHAU53-105 [1] and in the series with RHAU (full length) (G-quadruplex) was “binds” each time.
AGCGGGCAGUGCGGGCCUGGCGGGAGGUGGGGGAGG (structured_RNA) [PITX1 Q3]: the binding result with RHAU53-105 [1] and in the series with RHAU (full length) (G-quadruplex) was “binds” each time.
For GAGCGGGGAAGGGCGCGGGCGCGGGCGCGG (structured_RNA) [PITX1 Q1], the binding result in the series with RHAU53-105 [1], in the series with 6xHis-RHAU53-105 [2] and with RHAU (full length) (G-quadruplex) was “binds” throughout.
Regarding GAGCGCGGAAGCGCGCGCGCGCGCGCGCGG (ssRNA) [PITX1 Q1Mut], the binding result with 6xHis-RHAU53-105 [3], in the series with RHAU (full length) (no quadruplex (no NMM staining)) and with RHAU53-105 [4] was “no binding” in each case.
